Results taken from paper PMC7603314, “Broad-complex transcription factor mediates opposing hormonal regulation of two phylogenetically distant arginine kinase genes in Tribolium castaneum” (Communications Biology, 2020).

B1: TcAK2 (Tribolium castaneum) (protein)
chain: MAKAKCHNCETKCGKGKINPEVLTKLEDGFRRLATSNSQSLLKKYLTQAVFDKLKSKKTGFGSTLLDCIQSGLENPDSNIGVYAPDPEAYTVFAELFDPIIDEYHGGFKKTDQHPASTWGDLKSIGDVDPDQKYVVSTRIRCGRSLAGYPFNPCLTEAQYKEMEKKVSGTLMSLTGELKGKYYPLTGMSKRDQQQLIDDHFLFKEGDRFLQAANACRFWPTGRGIFHNTKKTFLVWLNEEDHLRIISMQKGGNVGEVYQRLVCAVEEIETKLKFSRSDRFGYLTFCPTNLGTTIRASVHIQVPKLAKDKAKLEAVANQFNLQVRGTRGEHSEAEEGVYDISNRRRLGLTEYDAVKEMHDGILKIIEMESCM
notes: His-tagged in pQE-30-XA, E. coli M15, Ni-NTA; signature CP(S/T)N(I/L)GT at 286-292
B2: TcAK1 (Tribolium castaneum) (protein)
chain: MVDAAVLEKLEAGFKKLEASDSKSLLKKYLTRELFDKLKTKKTSFGSTLLDVIQSGLENHDSGIGIYAPDADSYSVFADLFDPIIEDYHGGFKKTDKHPPKDWGDVNAFGNLDPAGEFVVSTRVRCGRSLEGYPFNPCLTEEQYKEMEQKVSSTLSGLEGELKGTFYPLTGMSKEVQQKLIDDHFLFKEGDRFLQAANACRFWPTGRGIFHNDAKTFLVWCNEEDHLRIISMQMGGDLGQVYRRLVTGVNDIEKRLPFSHSDRFGFLTFCPTNLGTTVRASVHIKVPKLAANKAKLDEVAAKFNLQVRGTRGEHTEAEGGVYDISNKRRMGLTEFDAVKEMYDGISEIIKMEKEL
notes: His-tagged in pQE-30-XA, E. coli M15, Ni-NTA; signature CP(S/T)N(I/L)GT at 270-276

Substrate: N=C(N)NCCC[C@H](N)C(=O)O
Assay: purified protein
Format: biochemical, Tribolium castaneum
Settings: forward reaction, 0.9 mM ATP, 20 mM MgCl2, 50 mM Tris-HCl pH 7.5, 30 °C, L-arginine varied 0.2-10 mM

Protein	Km [µM]	kcat [s⁻¹]	kcat/Km [M⁻¹ s⁻¹]
B1	3700 ± 40	12.7 ± 0.95	3500
B2	1500 ± 20	172.7 ± 5.8	113000
